Experimental data reported in doi:10.1101/2023.05.01.538945.

Assays:
[1] = molecular target: Bacillus cereus VD045 GajB (Gabija protein B), untagged, co-expressed with GajA (Bacillus cereus VD045) (UniProt J8HQ06); experiment: crystal structure
[2] = molecular target: SUMO2-tagged Bacillus cereus VD045 GajAB complex (Bacillus cereus VD045) (UniProt J8H9C1); experiment: cryo-EM structure
[3] = molecular target: Bacillus phage Phi3T Gabija anti-defense 1 (Gad1) (Bacillus phage Phi3T); experiment: cryo-EM structure

Chain of Bacillus phage Phi3T Gabija anti-defense 1 (Gad1) (natural protein) (A0A1P8CWZ3 whole entry): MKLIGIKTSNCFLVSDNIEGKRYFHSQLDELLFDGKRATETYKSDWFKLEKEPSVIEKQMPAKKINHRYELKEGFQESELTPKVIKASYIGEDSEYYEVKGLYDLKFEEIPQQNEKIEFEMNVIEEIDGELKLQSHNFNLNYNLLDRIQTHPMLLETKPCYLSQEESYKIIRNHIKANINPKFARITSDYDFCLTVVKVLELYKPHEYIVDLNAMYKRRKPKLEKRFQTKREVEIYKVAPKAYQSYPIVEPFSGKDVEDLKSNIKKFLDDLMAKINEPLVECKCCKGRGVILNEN
Chain of SUMO2-tagged Bacillus cereus VD045 GajAB complex (Bacillus cereus VD045) (J8H9C1 2-578, chain 1 of 2): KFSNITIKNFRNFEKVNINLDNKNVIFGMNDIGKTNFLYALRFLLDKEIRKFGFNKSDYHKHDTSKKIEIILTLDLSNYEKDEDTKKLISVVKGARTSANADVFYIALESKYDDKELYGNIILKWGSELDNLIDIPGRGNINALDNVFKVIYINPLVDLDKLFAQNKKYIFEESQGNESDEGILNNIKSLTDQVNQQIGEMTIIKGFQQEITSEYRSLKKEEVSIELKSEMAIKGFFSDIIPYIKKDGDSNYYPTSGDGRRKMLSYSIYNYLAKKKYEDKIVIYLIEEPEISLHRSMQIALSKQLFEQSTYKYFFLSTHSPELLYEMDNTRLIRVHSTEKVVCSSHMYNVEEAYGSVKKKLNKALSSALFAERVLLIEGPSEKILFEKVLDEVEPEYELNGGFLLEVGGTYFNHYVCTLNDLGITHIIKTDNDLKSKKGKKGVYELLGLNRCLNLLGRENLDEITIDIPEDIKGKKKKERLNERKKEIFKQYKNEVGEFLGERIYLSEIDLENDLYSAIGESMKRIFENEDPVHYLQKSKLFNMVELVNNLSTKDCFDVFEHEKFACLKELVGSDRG
Chain of SUMO2-tagged Bacillus cereus VD045 GajAB complex (Bacillus cereus VD045) (J8HQ06 2-494, chain 2 of 2, further chain): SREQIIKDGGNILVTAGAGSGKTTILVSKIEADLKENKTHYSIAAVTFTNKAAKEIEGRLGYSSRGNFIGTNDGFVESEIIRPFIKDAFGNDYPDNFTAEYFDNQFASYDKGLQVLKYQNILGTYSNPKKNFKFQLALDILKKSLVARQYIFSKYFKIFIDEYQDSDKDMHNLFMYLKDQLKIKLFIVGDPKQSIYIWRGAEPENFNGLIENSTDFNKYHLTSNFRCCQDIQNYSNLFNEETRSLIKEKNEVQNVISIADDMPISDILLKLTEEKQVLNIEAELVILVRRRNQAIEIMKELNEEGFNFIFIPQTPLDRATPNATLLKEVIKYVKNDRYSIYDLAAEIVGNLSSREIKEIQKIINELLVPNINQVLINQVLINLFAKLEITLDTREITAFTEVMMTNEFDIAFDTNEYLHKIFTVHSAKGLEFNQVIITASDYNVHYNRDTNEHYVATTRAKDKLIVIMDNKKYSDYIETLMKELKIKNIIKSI

Row | Substance | stoichiometry N [1] | stoichiometry N (Gad1 per 4:4 GajAB assembly) [2] | stoichiometry N [3]
1 | Bacillus cereus VD045 GajB (Gabija protein B), untagged, co-expressed with GajA (from UniProt J8HQ06 2-494) (enzyme) | 2 |  | 
2 | Bacillus phage Phi3T Gabija anti-defense 1 (Gad1) (natural protein) |  | 8 | 8
